Patent US20110217282A1 (UNIVERSITY OF MEDICINE AND DENTISTRY OF NEW JERSEY, published 2011)

Target: T1, YgiT (E. coli, UniProt Q46864 1-131)
T1 construct: YgiT with no tag named, co-expressed with H-MqsR from pET-MqsRYgiT (the operon cloned in pET28a) or induced from pBAD-YgiT in cells; also called YgiT of the H-MqsRYgiT complex; YgiT expressed from pBAD-YgiT
T1 sequence: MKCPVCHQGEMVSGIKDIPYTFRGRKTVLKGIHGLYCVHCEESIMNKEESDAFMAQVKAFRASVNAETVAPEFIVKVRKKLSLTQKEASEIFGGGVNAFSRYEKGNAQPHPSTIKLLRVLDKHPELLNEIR
Experiment: co-expression and co-purification on Ni-NTA agarose through the tag of H-MqsR

B1: N-terminal histidine-tagged MqsR (enzyme)
chain: MEKRTPHTRLSQVKKLVNAGQVRTTRSALLNADELGLDFDGMCNVIIGLSESDFYKSMTTYSDHTIWQDVYRPRLVTGQVYLKITVIHDVLIVSFKEK
notes: also called H-MqsR; His-MqsR; not shown: N-terminal histidine tag from pET28a
binding result: binds
